This sample holds only a part of the variants without activity.
How the values were obtained:
biotinyl-Phe-oxazolone = test: self-aminoacylation, catalytic enhancement (BFO) (fold over background); higher = more active; k-Seq, kA / k0A0; sequences stand for … in GGGAAUGGAUCCACAUCUACGAAUUC…UUCACUGCAGACUUGACGAAGCUG
Summary of the method: (§1)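 Each biotinyl-aminoacyl-oxazolone, at 2–1250 μM, was incubated with mutagenized RNA pools (0.43 μM) carrying a 21-nt variable region. The 50 μL reactions contained HEPES/NaCl/KCl/MgCl2/CaCl2 buffer with 5% acetonitrile at pH 6.9–7.0 and ran for 90 minutes at room temperature. After streptavidin capture, RNA was measured by qPCR in triplicate and by Illumina sequencing, and catalytic enhancement was calculated as median kA over the uncatalyzed rate from a pseudo-first-order fit of per-sequence fraction reacted.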

biotinyl-Met-oxazolone = test: self-aminoacylation, catalytic enhancement (BMO) (fold over background); higher = more active; k-Seq, kA / k0A0; sequences stand for … in GGGAAUGGAUCCACAUCUACGAAUUC…UUCACUGCAGACUUGACGAAGCUG
Summary of the method: as §1

biotinyl-Trp-oxazolone = test: self-aminoacylation, catalytic enhancement (BWO) (fold over background); higher = more active; k-Seq, kA / k0A0; sequences stand for … in GGGAAUGGAUCCACAUCUACGAAUUC…UUCACUGCAGACUUGACGAAGCUG
Summary of the method: as §1

biotinyl-Leu-oxazolone = test: self-aminoacylation, catalytic enhancement (BLO) (fold over background); higher = more active; k-Seq, kA / k0A0; sequences stand for … in GGGAAUGGAUCCACAUCUACGAAUUC…UUCACUGCAGACUUGACGAAGCUG
Summary of the method: as §1

biotinyl-Val-oxazolone = test: self-aminoacylation, catalytic enhancement (BVO) (fold over background); higher = more active; k-Seq, kA / k0A0; sequences stand for … in GGGAAUGGAUCCACAUCUACGAAUUC…UUCACUGCAGACUUGACGAAGCUG
Summary of the method: as §1

Row | Sequence | self-aminoacylation (biotinyl-Phe-oxazolone) | self-aminoacylation (biotinyl-Met-oxazolone) | self-aminoacylation (biotinyl-Trp-oxazolone) | self-aminoacylation (biotinyl-Leu-oxazolone) | self-aminoacylation (biotinyl-Val-oxazolone)
1 | AAGUCUGCUAACAGUCGCAAG [Fam3.1 aminoacylation ribozyme variant] | 28.4 | 2.09 | 7.03 | – | –
2 | AAGUCUGCUAAUAGUCGCAAG [Fam3.1 aminoacylation ribozyme variant] | 51.8 | 2.44 | 9.75 | – | –
3 | AAGUUUGCCAAUAGUCGCAAA [Fam3.1 aminoacylation ribozyme variant] | 2.47 | 2.37 | – | – | –
4 | AAGUUUGCCAAUAGUCGCAAU [Fam3.1 aminoacylation ribozyme variant] | 9.89 | 2.07 | 3.5 | – | –
5 | AAGUUUGCUAAUAGUCGAAAA [Fam3.1 aminoacylation ribozyme variant] | – | 2.08 | – | – | –
6 | ACUACCCUGGUCAUCGAGAGA [Fam2.1 aminoacylation ribozyme variant] | – | 2.02 | – | – | –
7 | AGUACCCUGGUCAUCGAGUAA [Fam2.1 aminoacylation ribozyme variant] | 3.84 | 2.71 | – | 2.52 | –
8 | AUCACCCUGGUCAUCGAGUGC [Fam2.1 aminoacylation ribozyme variant] | 4.47 | 3.26 | 2.4 | 2.56 | –
9 | AUCACCCUGGUCAUCGAGUUA [Fam2.1 aminoacylation ribozyme variant] | 4.31 | 2.93 | 2.62 | 2.83 | –
10 | AUUAACCUAGUUCAUCGGGUG [Fam2.2 aminoacylation ribozyme variant] | 12.3 | 2.14 | 2.54 | 2.71 | –
11 | AUUACACUGGUCAUCCAGUGA [Fam2.1 aminoacylation ribozyme variant] | 9.37 | 3.47 | 3.06 | 3.01 | –
12 | AUUACACUGGUCAUGGAGUGA [Fam2.1 aminoacylation ribozyme variant] | 2.95 | 2.63 | 2.06 | 2.48 | 2
13 | AUUACCCUGCUCAUCGUGUGA [Fam2.1 aminoacylation ribozyme variant] | 14.7 | 2.7 | 3.19 | 2.85 | –
14 | AUUACCCUGGCCAACGAGUGA [Fam2.1 aminoacylation ribozyme variant] | 21 | 2.75 | 5.43 | 3.31 | –
15 | AUUACCCUGGUCAGCGAGUGG [Fam2.1 aminoacylation ribozyme variant] | 2.26 | 2.51 | 2.61 | 2.51 | –
16 | AUUACCCUGGUCAUCGCGUCA [Fam2.1 aminoacylation ribozyme variant] | 12.2 | 2.38 | 2.27 | 2.14 | 2.03
17 | AUUACCCUGGUCAUCUCGUGA [Fam2.1 aminoacylation ribozyme variant] | 12.4 | 2.37 | 2.81 | 2.62 | –
18 | AUUACCCUGGUUAUCAAGUGA [Fam2.1 aminoacylation ribozyme variant] | 4.14 | 2.67 | 3.4 | 2.53 | –
19 | AUUACCGUGGUCAUCAAGUGA [Fam2.1 aminoacylation ribozyme variant] | 4.54 | 2.83 | 3.6 | 3.05 | –
20 | AUUACGCUCGUCAUCGAGUGA [Fam2.1 aminoacylation ribozyme variant] | 3.68 | 2.09 | 2.54 | 2.5 | –
21 | AUUACUCUGGUCAUCGAGUGG [Fam2.1 aminoacylation ribozyme variant] | – | 2.16 | – | 2.42 | –
22 | AUUAGCCUGCUCAUCGAGUGA [Fam2.1 aminoacylation ribozyme variant] | 12.2 | 3.42 | 4.65 | 2.92 | –
23 | AUUCACCUAGAUCAUAGGGUG [Fam2.2 aminoacylation ribozyme variant] | 13.6 | 3.97 | 2.9 | 4.64 | 2.07
24 | AUUCACCUAGCUUAUCGGGUG [Fam2.2 aminoacylation ribozyme variant] | 4.71 | 2.12 | 2.2 | – | –
25 | AUUCACCUAGGACAACGGGUG [Fam2.2 aminoacylation ribozyme variant] | 25.7 | 3.6 | 2.92 | 3.72 | –
26 | AUUCACCUAGGUCAACUGGUG [Fam2.2 aminoacylation ribozyme variant] | 15.9 | 2.69 | 2.21 | 3.35 | –

Row | Sequence | self-aminoacylation (biotinyl-Phe-oxazolone) | self-aminoacylation (biotinyl-Met-oxazolone) | self-aminoacylation (biotinyl-Trp-oxazolone) | self-aminoacylation (biotinyl-Leu-oxazolone) | self-aminoacylation (biotinyl-Val-oxazolone)
27 | AUUCACCUAGGUCACCGGGUC [Fam2.2 aminoacylation ribozyme variant] | – | – | – | – | 2.18
28 | AUUCACCUAGGUCAGCGGCUG [Fam2.2 aminoacylation ribozyme variant] | 8.56 | 2.5 | – | 3.16 | –
29 | AUUCACCUAGGUUAUCGGGGG [Fam2.2 aminoacylation ribozyme variant] | 6.72 | – | 2.02 | 2.29 | 2.01
30 | AUUCACCUAGUUCAUCGGGUG [Fam2.2 aminoacylation ribozyme variant] | 12.9 | 2.49 | 2.49 | 2.74 | 2.15
31 | AUUCACCUAUGUCAUUGGGUG [Fam2.2 aminoacylation ribozyme variant] | 9.21 | 2.03 | 2.13 | 2.34 | –
32 | AUUCACUUAGAUCAUCGGGUG [Fam2.2 aminoacylation ribozyme variant] | 10.8 | 2.14 | 2.82 | 2.57 | –
33 | AUUCACUUAGGUAAUCGGGUG [Fam2.2 aminoacylation ribozyme variant] | 19.6 | 3.11 | 2.72 | 3.33 | –
34 | AUUCAUCUAGCUCAUCGGGUG [Fam2.2 aminoacylation ribozyme variant] | – | 2.12 | 2.3 | – | –
35 | AUUCAUCUAGGUCAUCAGGUG [Fam2.2 aminoacylation ribozyme variant] | 2.89 | 2.23 | 2.07 | – | –
36 | AUUCCCCUGGUCAUCAAGUGA [Fam2.1 aminoacylation ribozyme variant] | 3.87 | 2.36 | 2.34 | – | –
37 | CCACACCUCAAGCAAUCGGCC [Fam1B.1 aminoacylation ribozyme variant] | – | – | 2.61 | – | 2.42
38 | CCACACUUCAAGCAAACGGGC [Fam1B.1 aminoacylation ribozyme variant] | – | – | – | – | 2.03
39 | CCACACUUCAAGCAACCGCUC [Fam1B.1 aminoacylation ribozyme variant] | 8.07 | – | – | – | 2.09
40 | CCACACUUCAAGCAACCGGUU [Fam1B.1 aminoacylation ribozyme variant] | – | – | – | – | 2.04
41 | CCACACUUCAAGCAAUCGGCG [Fam1B.1 aminoacylation ribozyme variant] | – | 2.16 | 2.05 | – | 2.18
42 | CCACACUUCACGCAAUCGCUC [Fam1B.1 aminoacylation ribozyme variant] | – | – | – | – | 2.19
43 | CCACCCUUCAAGCAAUCGGCC [Fam1B.1 aminoacylation ribozyme variant] | 3.03 | – | 3.11 | – | 2.39
44 | CCACCCUUCAAGCAUUCGGUC [Fam1B.1 aminoacylation ribozyme variant] | – | – | – | – | 2.56
45 | CCCCACUUCAAACAAUCGGUC [Fam1B.1 aminoacylation ribozyme variant] | 140 | – | 61.2 | 2.83 | 2.15
46 | CCCCACUUGAAGCAAUCGGUC [Fam1B.1 aminoacylation ribozyme variant] | – | – | 2.12 | – | 2.23
47 | CCGCCCUUCAAGCAAUCGGUC [Fam1B.1 aminoacylation ribozyme variant] | 38.9 | – | 29.9 | 2.13 | 2.62
48 | CGACUUCAAACAAUCGGUCUG [Fam1A.1 aminoacylation ribozyme variant] | 102 | – | 44.4 | 2.66 | –
49 | CGACUUCAAGCAAUCGGUCUG [Fam1A.1 aminoacylation ribozyme variant] | 26.6 | – | 20.1 | 2.13 | –
50 | CUACUUCAACCAAUCGGCCUG [Fam1A.1 aminoacylation ribozyme variant] | 47.8 | – | 42.2 | 2.86 | –
51 | CUUCACCUAGGUCAACGGGUG [Fam2.2 aminoacylation ribozyme variant] | 9.32 | 2.28 | – | 2.48 | –
52 | UAGUUUGCUAAUAGUCGCGAG [Fam3.1 aminoacylation ribozyme variant] | 2.58 | – | 2.02 | 2.08 | –

— the supplement of paper PMC9233669
